In US7378503 (dated 2008):

Tests used:
[1] = target: IGF-IR extracellular domain (human, UniProt P08069); assay: SPR
[2] = target: mouse IGF-IR (mouse, UniProt Q60751); assay: other, immunoprecipitation
[3] = target: rat IGF-IR (rat, UniProt P24062); assay: other, immunoprecipitation
Chain of rat IGF-IR (P24062 31-936): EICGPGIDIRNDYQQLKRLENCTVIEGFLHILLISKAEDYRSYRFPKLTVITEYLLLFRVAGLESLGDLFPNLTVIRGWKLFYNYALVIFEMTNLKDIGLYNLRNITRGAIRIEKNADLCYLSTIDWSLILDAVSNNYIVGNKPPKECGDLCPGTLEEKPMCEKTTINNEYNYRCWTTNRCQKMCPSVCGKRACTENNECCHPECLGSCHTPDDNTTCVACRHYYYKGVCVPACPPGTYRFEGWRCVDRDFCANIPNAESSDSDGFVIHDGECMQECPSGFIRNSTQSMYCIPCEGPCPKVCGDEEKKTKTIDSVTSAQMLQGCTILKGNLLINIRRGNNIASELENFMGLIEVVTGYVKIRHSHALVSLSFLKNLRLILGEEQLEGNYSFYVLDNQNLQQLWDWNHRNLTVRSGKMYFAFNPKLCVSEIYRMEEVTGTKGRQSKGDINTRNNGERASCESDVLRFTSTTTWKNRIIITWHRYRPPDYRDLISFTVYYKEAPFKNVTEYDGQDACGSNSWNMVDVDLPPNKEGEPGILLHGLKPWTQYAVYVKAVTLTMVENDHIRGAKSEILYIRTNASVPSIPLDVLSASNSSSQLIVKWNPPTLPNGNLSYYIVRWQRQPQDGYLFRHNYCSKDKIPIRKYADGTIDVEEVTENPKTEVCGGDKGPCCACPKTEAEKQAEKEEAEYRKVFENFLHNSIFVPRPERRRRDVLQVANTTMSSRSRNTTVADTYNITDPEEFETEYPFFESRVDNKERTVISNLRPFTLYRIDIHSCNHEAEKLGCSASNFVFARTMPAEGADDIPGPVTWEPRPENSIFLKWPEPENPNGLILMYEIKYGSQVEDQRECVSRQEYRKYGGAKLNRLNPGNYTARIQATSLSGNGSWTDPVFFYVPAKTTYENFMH

Chain of mouse IGF-IR (Q60751 31-936): as the sequence (P24062 31-936) above, with G271D, F629Y, L714M counted along it

B1: Antibody 23 (antibody, V domains shown)
VH: EVQLVQSGGGLVHPGGSLRLSCAGSGFTFSNYAMYWVRQAPGKGLEWVSAIGSGGGTYYADSVKGRFTISRDNAKNSLYLQMNSLRAEDMAVYHCARAPNWGSEAFDIWGQGTMVTVSS
VL: DIQMTQSPSSLSASVGDRVTITCRASQGISSWLAWYQQKPEKAPKSLIYAASSLQSGVPSRFSGSGSGTDFTLTISSLQPEDFATYYCQQYNSYPITFGQGTRLEIK
[1]
  Kd: 194 pM

B2: Antibody 8 (antibody, V domains shown)
VH: EVQLVQSGGGLVHPGGSLRLSCAGSGFTFRSYAMYWVRQAPGKGLEWVSAIGSGGGTYYADSVKGRFTISRDNAKNSLYLQMNSLRAEDMAVYYCARAPNWGSDAFDIWGQGTMVTVSS
VL: DIQMTQSPSSLSASVGDRVTITCRASQGISSWLAWYQQKPEKAPKSLIYAASSLQSGVPSRFSGSGSGTDFTLTISSLQPEDFATYYCQQYNSYPPTFGPGTKVDIK
[1]
  Kd: 2010 pM

B3: Antibody 1A (antibody, V domains shown)
VH: EVQLVQSGGGLVHPGGSLRLSCAGSGFTFRNYAMYWVRQAPGKGLEWVSAIGSGGGTYYADSVKGRFTISRDNAKNSLYLQMNSLRAEDMAVYYCARAPNWGSDAFDIWGQGTMVTVSS
VL: DIQMTQSPSSLSASVGDRVTITCRASQGISSWLAWYQQKPEKAPKSLIYAASSLQSGVPSRFSGSGSGTDFTLTISSLQPEDFATYYCQQYNSYPPTFGPGTKVDIK
[2]
  binding result: no binding
[3]
  binding result: no binding
[1]
  Kd: 397 pM
